Measurements from PMC2288786 (BMC Structural Biology, 2008).

What was measured:
Settings in all cases: both partners purified
[1] = biological target: T1, calmodulin (recombinant, from the expression construct pETCM with vertebrate CaM cDNA) ( (vertebrate CaM cDNA), UniProt P0DP23 2-149); test: SPR; Biacore 3000; CaM immobilised by amine coupling (4000 RU); peptide 2.5-200 μM injected; 10 mM HEPES pH 7.5, 150 mM NaCl, 4 mM CaCl2, 0.005% P-20; 30 μl/min; two-state conformational change model; also 2-site model on equilibrium RU
[2] = biological target: T1, calmodulin (recombinant, from the …); test: ITC; 1.0 mM MBP peptide injected into 0.10 mM CaM; 50 mM HEPES pH 7.5, 20 mM CaCl2; +40°C; fits: one site (peaks 2-7) and 4 sequential sites (peaks 2-20)
[3] = biological target: T1, calmodulin (recombinant, from the …); test: ITC; 1.0 mM MBP peptide injected into 0.10 mM CaM; 50 mM HEPES pH 7.5, 20 mM CaCl2; +35°C; fits: one site (peaks 2-7) and 4 sequential sites (peaks 2-20)
[4] = biological target: T1, calmodulin (recombinant, from the …); test: ITC; 1.0 mM MBP peptide injected into 0.10 mM CaM; 50 mM HEPES pH 7.5, 20 mM CaCl2; +25°C; fits: one site (peaks 2-7) and 4 sequential sites (peaks 2-20)
[5] = biological target: T1, calmodulin (recombinant, from the …); test: ITC; 1.0 mM MBP peptide injected into 0.10 mM CaM; 50 mM HEPES pH 7.5, 20 mM CaCl2; +30°C; fits: one site (peaks 2-7) and 4 sequential sites (peaks 2-20)
[6] = biological target: T1, calmodulin (recombinant, from the …); test: small-angle X-ray scattering (SAXS); CaM in solution with and without a 5-fold molar excess of the peptide, 5.4 to 140.0 mg/ml; X33 beamline, DESY

- Kd [1]: 58 µM
- Kd of the high-affinity binding event (2-site model, equilibrium RU) [1]: ~10 µM
- Kd of the low-affinity binding event (2-site model, equilibrium RU) [1]: ~1000 µM
- Kd [2]: 25.9 µM
- Kd of the first binding event (4-site model) [2]: 1.7 µM
- dH [2]: -1.09 ± 0.97 kcal/mol
- dH of the first binding event (4-site model) [2]: -0.73 ± 0.05 kcal/mol
- stoichiometry N [2]: 0.7 ± 0.17
- Kd [3]: 1.9 µM
- Kd of the first binding event (4-site model) [3]: 1 µM
- dH [3]: -2.38 ± 0.1 kcal/mol
- dH of the first binding event (4-site model) [3]: -2.34 ± 0.03 kcal/mol
- stoichiometry N [3]: 0.63 ± 0.02
- Kd [4]: 3.4 µM
- Kd of the first binding event (4-site model) [4]: 1 µM
- dH [4]: -1.47 ± 0.13 kcal/mol
- dH of the first binding event (4-site model) [4]: -1.44 ± 0.04 kcal/mol
- stoichiometry N [4]: 0.83 ± 0.23
- Kd [5]: 2.3 µM
- Kd of the first binding event (4-site model) [5]: 1.1 µM
- dH [5]: -2.11 ± 0.06 kcal/mol
- dH of the first binding event (4-site model) [5]: -2.07 ± 0.02 kcal/mol
- stoichiometry N [5]: 0.67 ± 0.02
- stoichiometry N [6]: 1
B1: MBP peptide HKGFKGVDAQGTLSKIFKL, residues 138-156 of the human MBP 18.5 kDa isoform (peptide)
peptide: HKGFKGVDAQGTLSKIFKL
notes: myelin basic protein, human, 18.5-kDa isoform, residues 138-156; also called the peptide; myelin peptide; source: synthetic peptide, 95% purity; bought: Genemed Synthesis
